Legend:
[1] = molecular target: HA of H5N1 A/Viet Nam/1203/04 (influenza A virus H5N1 A/Viet Nam/1203/04); test: ELISA on HA
[2] = molecular target: HA of H9 A/HK/1073/99 (influenza A virus H9N2 A/Hong Kong/1073/99); test: ELISA on HA
[3] = molecular target: HA of H5N1 A/Viet Nam/1203/04 (influenza A virus H5N1 A/Viet Nam/1203/04); test: cell-based or functional assay
[4] = molecular target: H5-HA (Table 7) (influenza A virus, H5 subtype, strain not stated); test: ELISA on baculovirus-derived recombinant HA
[5] = molecular target: H7-HA (Table 7) (influenza A virus, H7 subtype, strain not stated); test: ELISA on baculovirus-derived recombinant HA
[6] = molecular target: HA of H5N1 A/Viet Nam/1203/04 (influenza A virus H5N1 A/Viet Nam/1203/04); test: ELISA on recombinant or purified HA
[7] = molecular target: HA of H9 A/HK/1073/99 (influenza A virus H9N2 A/Hong Kong/1073/99); test: ELISA on recombinant or purified HA
[8] = molecular target: HA of H7N3 A/Canada/444/04 (influenza A virus H7N3 A/Canada/444/04); test: ELISA on recombinant or purified HA
[9] = molecular target: HA of H5N1 A/Viet Nam/1/05 (influenza A virus H5N1 A/Viet Nam/1/05); test: ELISA on recombinant or purified HA
[10] = molecular target: HA of H8N4 A/Alberta/357/84 (influenza A virus H8N4 A/Alberta/357/84); test: ELISA on recombinant or purified HA
[11] = molecular target: HA of H6N5 A/shearwater/Australia/1/72 (influenza A virus H6N5 A/shearwater/Australia/1/72); test: ELISA on recombinant or purified HA
[12] = molecular target: HA of H10N4 A/mink/Sweded/3900/84 (influenza A virus H10N4 A/mink/Sweded/3900/84); test: ELISA on recombinant or purified HA

B1: FI6 variant 2 (antibody, V domains shown)
VH: QVQLVQSGGGVVQPGRSLRLSCVASGFTFSTYAMHWVRQAPGRGLEWVAVISYDGNYKYYADSVKGRFSISRDNSNNTLHLEMNTLRTEDTALYYCAKDSQLRSLLYFEWLSQGYFDPWGQGTLVTVTS
VL: DIQMTQSPDSLAVSLGARATINCKSSQSVTFNYKNYLAWYQQKPGQPPKVLIYWASARESGVPDRFSGSGSGTDFTLTISSLQAEDVAVYYCQQHYRTPPTFGQGTKVEIK
Binding to HA by ELISA (% of subtype specific control antibodies) [1]: 73.7% | Binding to HA by ELISA (% of subtype specific control antibodies) [2]: 98.7% | Neutralization of HA-pseudotypes (IC90, µg/ml) [3]: 0.02 µg/mL | EC50 [4]: 0.0145 µg/mL | EC50 [5]: 0.0314 µg/mL | EC50 [6]: 0.014 µg/mL | EC50 [7]: 0.014 µg/mL | EC50 [8]: 0.033 µg/mL | EC50 [9]: 0.01 µg/mL | EC50 [10]: 0.033 µg/mL | EC50 [11]: 0.041 µg/mL | EC50 [12]: 0.09 µg/mL

B2: FI28 variant 1 (antibody, V domains shown)
VH: EVQLVESGGGAVQPGESLKLSCAASGFTFSNYGMHWVRQAPGKGLEWVAVISYDGSNKYYADSVKGRFTISRDNSKDTLYLQMNSLRAEDTALFYCAKERPLRLLRYFDWLSGGANDYWGQGTLVTVSS
VL: DIVMTQSPDSLAVSLGERATINCKSSQSVLYSSNNKNYLAWYQQKPGQPPKLLIDWASTRESGVPDRFSGSGSGTDFTLTISNLQVEDVAVYYCQQYYRSPSFGQGTKLEIK
Binding to HA by ELISA (% of subtype specific control antibodies) [1]: 46.3% | Binding to HA by ELISA (% of subtype specific control antibodies) [2]: 87.7% | Neutralization of HA-pseudotypes (IC90, µg/ml) [3]: 0.02 µg/mL
